The text below walks through data of patent publication US20210187069A1.

In this experiment the target is T1, wildtype SARM1 (endogenous, in wildtype mouse dorsal root ganglion neurons) (mouse) (UniProt Q6PDS3).
T1 sequence (looked up): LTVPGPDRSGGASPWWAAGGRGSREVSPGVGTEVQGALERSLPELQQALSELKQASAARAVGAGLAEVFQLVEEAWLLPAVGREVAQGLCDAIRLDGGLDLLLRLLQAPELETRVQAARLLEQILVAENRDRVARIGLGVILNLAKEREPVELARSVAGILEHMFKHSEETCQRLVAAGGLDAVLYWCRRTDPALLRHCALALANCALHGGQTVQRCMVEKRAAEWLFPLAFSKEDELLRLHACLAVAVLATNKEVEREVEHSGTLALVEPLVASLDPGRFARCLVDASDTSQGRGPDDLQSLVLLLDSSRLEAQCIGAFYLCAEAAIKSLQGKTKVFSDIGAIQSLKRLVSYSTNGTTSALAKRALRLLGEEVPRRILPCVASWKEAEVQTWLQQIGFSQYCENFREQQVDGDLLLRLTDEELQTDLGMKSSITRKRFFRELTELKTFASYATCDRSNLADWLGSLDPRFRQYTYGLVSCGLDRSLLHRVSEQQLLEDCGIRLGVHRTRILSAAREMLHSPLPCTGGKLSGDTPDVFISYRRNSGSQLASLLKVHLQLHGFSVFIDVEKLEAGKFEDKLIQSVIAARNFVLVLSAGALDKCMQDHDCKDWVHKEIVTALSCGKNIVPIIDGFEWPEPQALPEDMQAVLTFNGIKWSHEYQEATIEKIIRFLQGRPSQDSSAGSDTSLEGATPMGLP
The experiment can be described thus: cell-based or functional assay.

B1: SARM1-deltaTIR (enzyme, not shown: large carriers)
chain: MLAVPGPDGGGGTGPWWAAGGRGPREVSPGAGTEVQDALERALPELQQALSALKQAGGARAVGAGLAEVFQLVEEAWLLPAVGREVAQGLCDAIRLDGGLDLLLRLLQAPELETRVQAARLLEQILVAENRDRVARIGLGVILNLAKEREPVELARSVAGILEHMFKHSEETCQRLVAAGGLDAVLYWCRRTDPALLRHCALALGNCALHGGQAVQRRMVEKRAAEWLFPLAFSKEDELLRLHACLAVAVLATNKEVEREVERSGTLALVEPLVASLDPGRFARCLVDASDTSQGRGPDDLQRLVPLLDSNRLEAQCIGAFYLCAEAAIKSLQGKTKVFSDIGAIQSLKRLVSYSTNGTKSALAKRALRLLGEEVPRPILPSVPSWKEAEVQTWLQQIGFSKYCESFREQQVDGDLLLRLTEEELQTDLGMKSGITRKRFFRELTELKTFANYSTCDRSNLADWLGSLDPRFRQYTYGLVSCGLDRSLLHRVSEQQLLEDCGIHLGVHRARILTAAREMLHSPLPCTGGKPSGDATT
Regarding B1, the axon degeneration (degeneration index) after axotomy of wildtype DRG neurons was found to be 36 h.

B2: SARM1-K597E (enzyme, not shown: large carriers)
chain: LAVPGPDGGGGTGPWWAAGGRGPREVSPGAGTEVQDALERALPELQQALSALKQAGGARAVGAGLAEVFQLVEEAWLLPAVGREVAQGLCDAIRLDGGLDLLLRLLQAPELETRVQAARLLEQILVAENRDRVARIGLGVILNLAKEREPVELARSVAGILEHMFKHSEETCQRLVAAGGLDAVLYWCRRTDPALLRHCALALGNCALHGGQAVQRRMVEKRAAEWLFPLAFSKEDELLRLHACLAVAVLATNKEVEREVERSGTLALVEPLVASLDPGRFARCLVDASDTSQGRGPDDLQRLVPLLDSNRLEAQCIGAFYLCAEAAIKSLQGKTKVFSDIGAIQSLKRLVSYSTNGTKSALAKRALRLLGEEVPRPILPSVPSWKEAEVQTWLQQIGFSKYCESFREQQVDGDLLLRLTEEELQTDLGMKSGITRKRFFRELTELKTFANYSTCDRSNLADWLGSLDPRFRQYTYGLVSCGLDRSLLHRVSEQQLLEDCGIHLGVHRARILTAAREMLHSPLPCTGGKPSGDTPDVFISYRRNSGSQLASLLKVHLQLHGFSVFIDVEELEAGKFEDKLIQSVMGARNFVLVLSPGALDKCMQDHDCKDWVHKEIVTALSCGKNIVPIIDGFEWPEPQVLPEDMQAVLTFNGIKWSHEYQEATIEKIIRFLQGRSSRDSSAGSDTSLEGAAPMGPTATT
Take B2: the axon degeneration (degeneration index) after axotomy of wildtype DRG neurons came to 36 h.

B3: SARM1-H685A/E642A (enzyme, not shown: large carriers)
chain: LAVPGPDGGGGTGPWWAAGGRGPREVSPGAGTEVQDALERALPELQQALSALKQAGGARAVGAGLAEVFQLVEEAWLLPAVGREVAQGLCDAIRLDGGLDLLLRLLQAPELETRVQAARLLEQILVAENRDRVARIGLGVILNLAKEREPVELARSVAGILEHMFKHSEETCQRLVAAGGLDAVLYWCRRTDPALLRHCALALGNCALHGGQAVQRRMVEKRAAEWLFPLAFSKEDELLRLHACLAVAVLATNKEVEREVERSGTLALVEPLVASLDPGRFARCLVDASDTSQGRGPDDLQRLVPLLDSNRLEAQCIGAFYLCAEAAIKSLQGKTKVFSDIGAIQSLKRLVSYSTNGTKSALAKRALRLLGEEVPRPILPSVPSWKEAEVQTWLQQIGFSKYCESFREQQVDGDLLLRLTEEELQTDLGMKSGITRKRFFRELTELKTFANYSTCDRSNLADWLGSLDPRFRQYTYGLVSCGLDRSLLHRVSEQQLLEDCGIHLGVHRARILTAAREMLHSPLPCTGGKPSGDTPDVFISYRRNSGSQLASLLKVHLQLHGFSVFIDVEKLEAGKFEDKLIQSVMGARNFVLVLSPGALDKCMQDHDCKDWVHKAIVTALSCGKNIVPIIDGFEWPEPQVLPEDMQAVLTFNGIKWSAEYQEATIEKIIRFLQGRSSRDSSAGSDTSLEGAAPMGPTATT
B3: the axon degeneration after 40 nM vincristine, wildtype DRG neurons was greater than 120 h.

B4: SARM1-K193R/E642A (enzyme, not shown: large carriers)
chain: LAVPGPDGGGGTGPWWAAGGRGPREVSPGAGTEVQDALERALPELQQALSALKQAGGARAVGAGLAEVFQLVEEAWLLPAVGREVAQGLCDAIRLDGGLDLLLRLLQAPELETRVQAARLLEQILVAENRDRVARIGLGVILNLAKEREPVELARSVAGILEHMFRHSEETCQRLVAAGGLDAVLYWCRRTDPALLRHCALALGNCALHGGQAVQRRMVEKRAAEWLFPLAFSKEDELLRLHACLAVAVLATNKEVEREVERSGTLALVEPLVASLDPGRFARCLVDASDTSQGRGPDDLQRLVPLLDSNRLEAQCIGAFYLCAEAAIKSLQGKTKVFSDIGAIQSLKRLVSYSTNGTKSALAKRALRLLGEEVPRPILPSVPSWKEAEVQTWLQQIGFSKYCESFREQQVDGDLLLRLTEEELQTDLGMKSGITRKRFFRELTELKTFANYSTCDRSNLADWLGSLDPRFRQYTYGLVSCGLDRSLLHRVSEQQLLEDCGIHLGVHRARILTAAREMLHSPLPCTGGKPSGDTPDVFISYRRNSGSQLASLLKVHLQLHGFSVFIDVEKLEAGKFEDKLIQSVMGARNFVLVLSPGALDKCMQDHDCKDWVHKAIVTALSCGKNIVPIIDGFEWPEPQVLPEDMQAVLTFNGIKWSHEYQEATIEKIIRFLQGRSSRDSSAGSDTSLEGAAPMGPTATT
For B4, the axon degeneration after 40 nM vincristine, wildtype DRG neurons was greater than 120 h.

B5: SARM1-K193R/H685A (enzyme, not shown: large carriers)
chain: LAVPGPDGGGGTGPWWAAGGRGPREVSPGAGTEVQDALERALPELQQALSALKQAGGARAVGAGLAEVFQLVEEAWLLPAVGREVAQGLCDAIRLDGGLDLLLRLLQAPELETRVQAARLLEQILVAENRDRVARIGLGVILNLAKEREPVELARSVAGILEHMFRHSEETCQRLVAAGGLDAVLYWCRRTDPALLRHCALALGNCALHGGQAVQRRMVEKRAAEWLFPLAFSKEDELLRLHACLAVAVLATNKEVEREVERSGTLALVEPLVASLDPGRFARCLVDASDTSQGRGPDDLQRLVPLLDSNRLEAQCIGAFYLCAEAAIKSLQGKTKVFSDIGAIQSLKRLVSYSTNGTKSALAKRALRLLGEEVPRPILPSVPSWKEAEVQTWLQQIGFSKYCESFREQQVDGDLLLRLTEEELQTDLGMKSGITRKRFFRELTELKTFANYSTCDRSNLADWLGSLDPRFRQYTYGLVSCGLDRSLLHRVSEQQLLEDCGIHLGVHRARILTAAREMLHSPLPCTGGKPSGDTPDVFISYRRNSGSQLASLLKVHLQLHGFSVFIDVEKLEAGKFEDKLIQSVMGARNFVLVLSPGALDKCMQDHDCKDWVHKEIVTALSCGKNIVPIIDGFEWPEPQVLPEDMQAVLTFNGIKWSAEYQEATIEKIIRFLQGRSSRDSSAGSDTSLEGAAPMGPTATT
In turn, B5 displayed an axon degeneration after axotomy of wildtype DRG neurons greater than 120 h.

B6: SARM1-K193R/H194A/H685A (SARM1-compound dominant negative) (enzyme, not shown: large carriers)
chain: LAVPGPDGGGGTGPWWAAGGRGPREVSPGAGTEVQDALERALPELQQALSALKQAGGARAVGAGLAEVFQLVEEAWLLPAVGREVAQGLCDAIRLDGGLDLLLRLLQAPELETRVQAARLLEQILVAENRDRVARIGLGVILNLAKEREPVELARSVAGILEHMFRASEETCQRLVAAGGLDAVLYWCRRTDPALLRHCALALGNCALHGGQAVQRRMVEKRAAEWLFPLAFSKEDELLRLHACLAVAVLATNKEVEREVERSGTLALVEPLVASLDPGRFARCLVDASDTSQGRGPDDLQRLVPLLDSNRLEAQCIGAFYLCAEAAIKSLQGKTKVFSDIGAIQSLKRLVSYSTNGTKSALAKRALRLLGEEVPRPILPSVPSWKEAEVQTWLQQIGFSKYCESFREQQVDGDLLLRLTEEELQTDLGMKSGITRKRFFRELTELKTFANYSTCDRSNLADWLGSLDPRFRQYTYGLVSCGLDRSLLHRVSEQQLLEDCGIHLGVHRARILTAAREMLHSPLPCTGGKPSGDTPDVFISYRRNSGSQLASLLKVHLQLHGFSVFIDVEKLEAGKFEDKLIQSVMGARNFVLVLSPGALDKCMQDHDCKDWVHKEIVTALSCGKNIVPIIDGFEWPEPQVLPEDMQAVLTFNGIKWSAEYQEATIEKIIRFLQGRSSRDSSAGSDTSLEGAAPMGPTATT
As for B6, the axon degeneration (degeneration index) and TMRM-positive mitochondria after axotomy of wildtype DRG neurons is greater than 96 h; the axon degeneration after 40 nM vincristine, wildtype DRG neurons is greater than 120 h; the axon degeneration and TMRM-positive mitochondria after 40 nM vincristine, wildtype DRG neurons is greater than 96 h.

B7: SARM1 D627K (enzyme, not shown: large carriers)
chain: LAVPGPDGGGGTGPWWAAGGRGPREVSPGAGTEVQDALERALPELQQALSALKQAGGARAVGAGLAEVFQLVEEAWLLPAVGREVAQGLCDAIRLDGGLDLLLRLLQAPELETRVQAARLLEQILVAENRDRVARIGLGVILNLAKEREPVELARSVAGILEHMFKHSEETCQRLVAAGGLDAVLYWCRRTDPALLRHCALALGNCALHGGQAVQRRMVEKRAAEWLFPLAFSKEDELLRLHACLAVAVLATNKEVEREVERSGTLALVEPLVASLDPGRFARCLVDASDTSQGRGPDDLQRLVPLLDSNRLEAQCIGAFYLCAEAAIKSLQGKTKVFSDIGAIQSLKRLVSYSTNGTKSALAKRALRLLGEEVPRPILPSVPSWKEAEVQTWLQQIGFSKYCESFREQQVDGDLLLRLTEEELQTDLGMKSGITRKRFFRELTELKTFANYSTCDRSNLADWLGSLDPRFRQYTYGLVSCGLDRSLLHRVSEQQLLEDCGIHLGVHRARILTAAREMLHSPLPCTGGKPSGDTPDVFISYRRNSGSQLASLLKVHLQLHGFSVFIDVEKLEAGKFEDKLIQSVMGARNFVLVLSPGALKKCMQDHDCKDWVHKEIVTALSCGKNIVPIIDGFEWPEPQVLPEDMQAVLTFNGIKWSHEYQEATIEKIIRFLQGRSSRDSSAGSDTSLEGAAPMGPTATT
For B7, the axon degeneration after axotomy stood at 24 h.
